The values below come from US20260226503A1.

For experiment [1], the target named is AAV2 capsid (adeno-associated virus serotype 2) (UniProt P03135). Nature of the experiment: bind-and-elute chromatography, pure AAV2; bound at pH 7.0, eluted with 0.2 M MgCl2 in citrate pH 2.2; ELISA.
Experiment [2] deals with AAV9 capsid (adeno-associated virus serotype 9). The experiment is described as follows: bind-and-elute chromatography, pure AAV9; bound at pH 7.0, eluted with 0.2 M MgCl2 in citrate pH 2.2; ELISA. (In an ELISA, binding on a coated surface is turned into a signal by an enzyme label.)
For experiment [3] the target is unchanged. Nature of the experiment: bind-and-elute chromatography, pure AAV9; bound at pH 7.0, eluted with PBS pH 2.0; ELISA.
The target of experiment [4] is AAV2 capsid (adeno-associated virus serotype 2) (UniProt P03135). The experiment is described as follows: bind-and-elute chromatography, pure AAV2; bound at pH 7.0, eluted with PBS pH 2.0; ELISA.

Sequence of AAV2 capsid (adeno-associated virus serotype 2) (P03135 whole entry, chain 1 of 3): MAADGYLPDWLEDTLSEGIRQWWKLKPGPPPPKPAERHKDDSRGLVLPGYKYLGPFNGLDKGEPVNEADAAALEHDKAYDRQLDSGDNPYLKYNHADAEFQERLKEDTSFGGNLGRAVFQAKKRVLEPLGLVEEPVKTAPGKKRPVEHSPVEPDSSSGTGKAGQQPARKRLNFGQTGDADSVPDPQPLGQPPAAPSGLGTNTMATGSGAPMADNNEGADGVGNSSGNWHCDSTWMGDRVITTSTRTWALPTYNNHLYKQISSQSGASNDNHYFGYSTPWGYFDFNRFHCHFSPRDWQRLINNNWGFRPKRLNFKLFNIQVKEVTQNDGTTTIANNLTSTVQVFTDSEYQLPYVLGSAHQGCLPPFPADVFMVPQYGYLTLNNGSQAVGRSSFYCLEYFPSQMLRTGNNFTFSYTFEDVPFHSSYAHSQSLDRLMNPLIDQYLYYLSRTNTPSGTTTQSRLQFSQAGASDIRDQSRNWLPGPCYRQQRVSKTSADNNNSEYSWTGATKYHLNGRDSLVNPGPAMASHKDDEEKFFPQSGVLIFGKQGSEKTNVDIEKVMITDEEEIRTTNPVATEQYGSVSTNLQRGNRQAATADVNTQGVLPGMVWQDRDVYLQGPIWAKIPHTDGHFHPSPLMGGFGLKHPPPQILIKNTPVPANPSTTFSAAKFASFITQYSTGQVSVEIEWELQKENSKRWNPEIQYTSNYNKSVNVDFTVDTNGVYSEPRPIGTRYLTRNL
Sequence of AAV2 capsid (adeno-associated virus serotype 2) (P03135 139-735, tags left off, chain 2 of 3): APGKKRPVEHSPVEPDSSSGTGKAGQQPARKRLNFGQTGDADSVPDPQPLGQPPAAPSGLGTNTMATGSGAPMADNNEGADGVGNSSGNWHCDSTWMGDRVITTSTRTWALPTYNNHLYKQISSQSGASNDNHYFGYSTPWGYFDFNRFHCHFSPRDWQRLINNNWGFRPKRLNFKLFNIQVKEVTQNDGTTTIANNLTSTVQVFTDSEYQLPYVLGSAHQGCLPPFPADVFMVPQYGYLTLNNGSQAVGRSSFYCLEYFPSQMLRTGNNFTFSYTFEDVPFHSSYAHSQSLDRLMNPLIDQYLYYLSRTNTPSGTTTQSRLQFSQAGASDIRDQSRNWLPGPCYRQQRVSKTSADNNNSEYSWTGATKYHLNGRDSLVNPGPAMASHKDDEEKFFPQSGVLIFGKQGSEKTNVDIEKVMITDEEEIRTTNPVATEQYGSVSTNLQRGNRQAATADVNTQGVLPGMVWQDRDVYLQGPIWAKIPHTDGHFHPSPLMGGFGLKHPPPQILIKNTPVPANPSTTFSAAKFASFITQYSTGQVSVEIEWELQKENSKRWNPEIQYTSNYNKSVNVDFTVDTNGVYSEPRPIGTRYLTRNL
Sequence of AAV2 capsid (adeno-associated virus serotype 2) (P03135 203-735, chain 3 of 3): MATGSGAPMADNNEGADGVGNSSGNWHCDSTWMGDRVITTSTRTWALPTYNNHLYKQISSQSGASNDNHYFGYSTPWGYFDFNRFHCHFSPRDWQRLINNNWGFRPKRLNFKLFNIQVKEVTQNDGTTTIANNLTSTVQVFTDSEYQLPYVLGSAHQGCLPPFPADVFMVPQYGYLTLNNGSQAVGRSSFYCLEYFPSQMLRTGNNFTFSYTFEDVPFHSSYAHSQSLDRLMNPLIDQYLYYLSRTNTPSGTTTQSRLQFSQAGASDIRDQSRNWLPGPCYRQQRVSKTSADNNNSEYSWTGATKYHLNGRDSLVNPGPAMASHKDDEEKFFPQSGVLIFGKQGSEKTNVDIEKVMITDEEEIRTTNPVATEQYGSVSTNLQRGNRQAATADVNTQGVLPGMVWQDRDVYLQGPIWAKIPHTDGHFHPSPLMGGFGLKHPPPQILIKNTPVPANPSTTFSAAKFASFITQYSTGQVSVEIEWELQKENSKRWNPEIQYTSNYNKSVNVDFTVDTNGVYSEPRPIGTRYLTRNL

With “POROS CaptureSelect AAVX Affinity resin (VHH)”, the figures for the yield (AAV titer in elution fraction vs. load) in experiment [1] and in experiment [2] were 63.4% and 25.6%, respectively.

With AVB Sepharose HP resin (VHH), the yield (AAV titer in elution fraction vs. load) was 10.6% in experiment [3] and 45.8% in experiment [4].
